This is an account of results in publication PMC4840434, “The interactome of Streptococcus pneumoniae and its bacteriophages show highly specific patterns of interactions among bacteria and their phages” (Scientific Reports, 2016).

What all share (test): pull-down; LuMPIS: N-terminally MBP-tagged bait pulled down on amylose beads, N-terminally eGFP-luciferase-tagged prey detected by luciferase activity; both expressed in HEK cells, raw protein extracts; quadruplicates; LIR against MBP without ORF
In experiment [1] the target is Dp-1 orf16, NAD-dependent DNA ligase (LuMPIS construct) (phage Dp-1 of S. pneumoniae).
Experiment [2] concerns the target Dp-1 orf9, No similarity (LuMPIS construct) (phage Dp-1 of S. pneumoniae).
For experiment [3], the target named is Dp-1 orf32, Hypothetical protein (LuMPIS construct) (phage Dp-1 of S. pneumoniae).
The target in experiment [4] is Cp-1 orf16, Hypothetical protein (LuMPIS construct) (phage Cp-1 of S. pneumoniae).
Experiment [5] deals with Dp-1 orf39, Zinc finger protein (LuMPIS construct) (phage Dp-1 of S. pneumoniae).
Experiment [6] has as its target Dp-1 orf31, Hypothetical protein (LuMPIS construct) (phage Dp-1 of S. pneumoniae).
Experiment [7] has as its target Dp-1 orf44, Rho-like domain lipoprotein (LuMPIS construct) (phage Dp-1 of S. pneumoniae).
For experiment [8], the target named is Dp-1 orf34, Hypothetical protein (LuMPIS construct) (phage Dp-1 of S. pneumoniae).
The target in experiment [9] is Dp-1 orf47, Hypothetical protein (LuMPIS construct) (phage Dp-1 of S. pneumoniae).
The target in experiment [10] is Cp-1 orfc, Hypothetical protein (LuMPIS construct) (phage Cp-1 of S. pneumoniae).
For experiment [11], the target named is Cp-1 orf17, Tail protein N (LuMPIS construct) (phage Cp-1 of S. pneumoniae).
Experiment [12] deals with Cp-1 orfb, Hypothetical protein (LuMPIS construct) (phage Cp-1 of S. pneumoniae).
Experiment [13] has as its target Dp-1 orf48, Hypothetical protein (LuMPIS construct) (phage Dp-1 of S. pneumoniae).
In experiment [14] the target is Dp-1 orf29, Hypothetical protein (LuMPIS construct) (phage Dp-1 of S. pneumoniae).
The target in experiment [15] is Dp-1 orf60, Hypothetical protein (LuMPIS construct) (phage Dp-1 of S. pneumoniae).
Experiment [16] addresses Dp-1 orf4, Queuosine biosynth. protein QueE (LuMPIS construct) (phage Dp-1 of S. pneumoniae).
Experiment [17] has as its target Dp-1 orf14, dUTPase (LuMPIS construct) (phage Dp-1 of S. pneumoniae).
In experiment [18] the target is Dp-1 orf18, DNA polymerase III, delta’ subunit HolB (LuMPIS construct) (phage Dp-1 of S. pneumoniae).
Experiment [19] addresses Dp-1 orf51, Hypothetical protein (LuMPIS construct) (phage Dp-1 of S. pneumoniae).
Experiment [20] has as its target Cp-1 orf6, Hypothetical protein (LuMPIS construct) (phage Cp-1 of S. pneumoniae).
For experiment [21], the target named is Dp-1 orf33, Hypothetical protein (LuMPIS construct) (phage Dp-1 of S. pneumoniae).

Consider “SP_0259, Holliday junction DNA helicase RuvB (LuMPIS construct) (from UniProt Q97SR6 1-332) (natural protein)”, for which the LIR (luminescence intensity ratio against MBP alone) in [1] turned out to be 5; in experiment [2] it was 11; in [3], 3; in experiment [4] it was 12; in experiment [5] it was 10; in experiment [6] it was 4.

For the molecule “SP_0446, acetolactate synthase, small subunit (LuMPIS construct) (natural protein)”, the results for the LIR (luminescence intensity ratio against MBP alone) in [7] and in experiment [8] were 6 and 12, respectively.

For the molecule “SP_0687, ABC transporter, ATP-binding protein (LuMPIS construct) (from UniProt A0A0H2UP48 1-213) (natural protein)”, the LIR (luminescence intensity ratio against MBP alone) in [9] was 4.

For “SP_0979, oligoendopeptidase F (LuMPIS construct) (natural protein)”, the figures for the LIR (luminescence intensity ratio against MBP alone) in experiment [10] and in experiment [11] were 3 and 14, respectively.

As for “SP_1213, conserved domain protein (LuMPIS construct) (from UniProt A0A0H2UQB9 1-424) (natural protein)”, the LIR (luminescence intensity ratio against MBP alone) in experiment [12] worked out at 240.

Regarding “SP_1746, conserved hypothetical protein (LuMPIS construct) (from UniProt A0A0H2URF8 1-197) (natural protein)”, in experiment [13], the LIR (luminescence intensity ratio against MBP alone) worked out at 3.

In the case of “SP_2012, glyceraldehyde 3-phosphate dehydrogenase (LuMPIS construct) (natural protein)”, in experiment [14], the LIR (luminescence intensity ratio against MBP alone) stood at 3.

For the molecule “SP_2024, PTS system, IIA component (LuMPIS construct) (from UniProt A0A0H2US90 1-108) (natural protein)”, the LIR (luminescence intensity ratio against MBP alone) in experiment [15] was 5.

For “SP_2036, PTS system, IIA component (LuMPIS construct) (from UniProt A0A0H2URW0 1-161) (natural protein)”, the LIR (luminescence intensity ratio against MBP alone) in [16] is 454.

For “SP_2125, conserved hypothetical protein (LuMPIS construct) (from UniProt A0A0H2URY4 1-113) (natural protein)”, in experiment [17], the LIR (luminescence intensity ratio against MBP alone) stood at 45.

As for “SP_2157, alcohol dehydrogenase, iron-containing (LuMPIS construct) (from UniProt A0A0H2USH2 1-383) (natural protein)”, the LIR (luminescence intensity ratio against MBP alone) was found to be 13 in [7] and 35 in experiment [8].

As to “SP_2168, putative fucose operon repressor (LuMPIS construct) (from UniProt A0A0H2USI3 1-257) (natural protein)”, the LIR (luminescence intensity ratio against MBP alone) stood at 3 in experiment [13], 15 in experiment [2] and 5 in [6].

B1: SP_1584, GTP-sensing transcriptional pleiotropic repressor CodY (LuMPIS construct) (natural protein)
chain: MAHLLEKTRKITSILKRSEEQLQDELPYNAITRQLADIIHCNACIINSKGRLLGYFMRYKTNTDRVEQFFQTKIFPDDYVQGANMIYETEANLPVEHDMSIFPIESRDDFPDGLTTIAPIHVSGIRLGSLIIWRNDKKFEDEDLVLVEIASTVVGIQLLNFQREEDEKNIRRRTAVTMAVNTLSYSELRAVSAILGELNGNEGKLTASVIADRIGITRSVIVNALRKLESAGIIESRSLGMKGTYLKVLISDIFEEVKKRDY
Turning to B1, the LIR (luminescence intensity ratio against MBP alone) in experiment [18] was 6.

B2: SP_1672, recombination protein RecR (LuMPIS construct) (natural protein)
chain: MLYPTPIAKLIDSYSKLPGIGIKTATRLAFYTIGMSADDVNEFAKNLLSAKRELTYCSICGRLTDDDPCSICTDPTRDQTTILVLEDSRDVAAMENIQEYHGLYHVLHGLISPMNGISPDDINLKSLMTRLMDSEVSEVIVATNATADGEATSMYLSRLLKPAGIKVTRLARGLAVGADIEYADEVTLLRAIENRTEL
Turning to B2, in experiment [19], the LIR (luminescence intensity ratio against MBP alone) was 6.

B3: SP_1713, transcriptional regulator, NrdR family (LuMPIS construct) (natural protein)
chain: MRCPKCGATKSSVIDSRQAEEGNTIRRRRECDECQHRFTTYERVEERTLVVVKKDGTREQFSRDKIFNGIIRSAQKRPVSSDEINMVVNRIEQKLRGRNENEIQSEDIGSLVMEELAELDEITYVRFASVYRSFKDVSELESLLQQITQSSKKKKER
In the case of B3, the LIR (luminescence intensity ratio against MBP alone) in experiment [20] was 6.

B4: SP_1088, DNA repair protein RadC (LuMPIS construct) (natural protein)
chain: MYSISFQEDSLLPRERLAKEGVEALSNQELLAILLRTGTRQASVFEIAQKVLNNLSSLTDLKKMTLQELQSLSGIGRVKAIELQAMIELGHRIHKHETLEMESILSSQKLAKKMQQELGDKKQEHLVALYLNTQNQIIHQQTIFIGSVTRSIAEPREILHYAIKHMATSLILVHNHPSGAVAPSQNDDHVTKLVKEACELMGIVLLDHLIVSHSNYFSYREKTDLI
B4: the LIR (luminescence intensity ratio against MBP alone) in experiment [21] was determined as 3.
